From patent publication US20250262210A1 (TRUSTEES OF COLUMBIA UNIVERSITY IN THE CITY OF NEW YORK, published 2025)

Experiments:
Experiment in all cases: IP/MS, LZTR1 R810W-FLAG, U87
PTPN23 = PTPN23 (human, UniProt Q9H3S7 1-1636)
In short: (§1)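 Extracted peptides in 3% acetonitrile/0.1% formic acid ran on a 50 cm C18 column into an Orbitrap Fusion, with MaxQuant identification and spectral counting.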

SMPD4 = target: T1, SMPD4 (human, UniProt Q9NXE4 1-866, limits assumed)
T1 sequence (looked up): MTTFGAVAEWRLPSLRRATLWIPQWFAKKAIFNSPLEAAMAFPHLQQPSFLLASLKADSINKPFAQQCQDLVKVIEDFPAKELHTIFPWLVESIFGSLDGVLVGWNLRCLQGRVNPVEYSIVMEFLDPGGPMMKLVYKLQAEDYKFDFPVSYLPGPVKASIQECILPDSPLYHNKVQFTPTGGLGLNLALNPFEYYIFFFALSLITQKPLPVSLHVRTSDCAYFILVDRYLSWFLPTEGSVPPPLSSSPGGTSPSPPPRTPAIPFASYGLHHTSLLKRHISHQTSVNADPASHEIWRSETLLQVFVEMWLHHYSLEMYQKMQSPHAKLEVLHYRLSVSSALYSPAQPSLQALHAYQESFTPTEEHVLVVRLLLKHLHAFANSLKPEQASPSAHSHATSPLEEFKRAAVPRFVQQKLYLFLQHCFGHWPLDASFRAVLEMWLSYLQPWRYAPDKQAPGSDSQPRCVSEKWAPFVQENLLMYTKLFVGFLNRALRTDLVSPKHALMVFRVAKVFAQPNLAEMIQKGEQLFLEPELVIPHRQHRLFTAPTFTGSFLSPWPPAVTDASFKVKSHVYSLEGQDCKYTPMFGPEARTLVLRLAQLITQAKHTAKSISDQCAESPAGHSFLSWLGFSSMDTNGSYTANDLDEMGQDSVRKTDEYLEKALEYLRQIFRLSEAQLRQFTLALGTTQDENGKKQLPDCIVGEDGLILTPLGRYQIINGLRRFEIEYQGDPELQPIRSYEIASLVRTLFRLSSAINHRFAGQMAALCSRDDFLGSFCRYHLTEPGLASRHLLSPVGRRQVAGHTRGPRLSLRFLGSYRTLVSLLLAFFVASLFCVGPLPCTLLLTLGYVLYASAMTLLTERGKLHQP
In short: as §1

PARP10 = target: T2, PARP10 (human, UniProt Q53GL7 1-1025)
T2 sequence (looked up): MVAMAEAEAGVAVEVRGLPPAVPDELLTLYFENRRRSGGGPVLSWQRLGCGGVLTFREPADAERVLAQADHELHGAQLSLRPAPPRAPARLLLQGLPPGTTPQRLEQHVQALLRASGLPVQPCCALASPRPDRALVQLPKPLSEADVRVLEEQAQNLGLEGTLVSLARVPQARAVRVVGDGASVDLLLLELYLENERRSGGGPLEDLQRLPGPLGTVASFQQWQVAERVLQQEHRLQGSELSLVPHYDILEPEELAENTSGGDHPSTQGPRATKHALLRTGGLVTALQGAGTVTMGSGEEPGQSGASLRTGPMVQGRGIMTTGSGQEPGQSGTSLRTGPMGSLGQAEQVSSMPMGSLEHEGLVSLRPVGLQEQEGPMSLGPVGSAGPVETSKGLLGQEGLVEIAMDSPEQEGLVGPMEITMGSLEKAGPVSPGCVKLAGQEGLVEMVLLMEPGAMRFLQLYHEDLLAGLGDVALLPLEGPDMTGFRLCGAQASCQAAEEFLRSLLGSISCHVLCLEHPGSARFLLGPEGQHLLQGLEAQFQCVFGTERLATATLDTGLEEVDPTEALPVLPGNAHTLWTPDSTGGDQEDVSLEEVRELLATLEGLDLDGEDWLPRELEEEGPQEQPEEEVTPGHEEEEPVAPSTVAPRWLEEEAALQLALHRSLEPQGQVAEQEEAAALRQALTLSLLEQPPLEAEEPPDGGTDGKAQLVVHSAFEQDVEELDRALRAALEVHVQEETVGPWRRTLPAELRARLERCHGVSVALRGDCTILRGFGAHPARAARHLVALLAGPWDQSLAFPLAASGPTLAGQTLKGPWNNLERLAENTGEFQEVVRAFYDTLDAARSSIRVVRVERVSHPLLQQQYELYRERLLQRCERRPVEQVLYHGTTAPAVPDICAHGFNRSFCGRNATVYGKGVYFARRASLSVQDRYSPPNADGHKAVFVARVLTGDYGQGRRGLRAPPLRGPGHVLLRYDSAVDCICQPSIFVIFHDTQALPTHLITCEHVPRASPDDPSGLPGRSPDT
In short: as §1

Measured: binding result

PTPN23, sequence (Q9H3S7 whole entry, the tested form may be a part): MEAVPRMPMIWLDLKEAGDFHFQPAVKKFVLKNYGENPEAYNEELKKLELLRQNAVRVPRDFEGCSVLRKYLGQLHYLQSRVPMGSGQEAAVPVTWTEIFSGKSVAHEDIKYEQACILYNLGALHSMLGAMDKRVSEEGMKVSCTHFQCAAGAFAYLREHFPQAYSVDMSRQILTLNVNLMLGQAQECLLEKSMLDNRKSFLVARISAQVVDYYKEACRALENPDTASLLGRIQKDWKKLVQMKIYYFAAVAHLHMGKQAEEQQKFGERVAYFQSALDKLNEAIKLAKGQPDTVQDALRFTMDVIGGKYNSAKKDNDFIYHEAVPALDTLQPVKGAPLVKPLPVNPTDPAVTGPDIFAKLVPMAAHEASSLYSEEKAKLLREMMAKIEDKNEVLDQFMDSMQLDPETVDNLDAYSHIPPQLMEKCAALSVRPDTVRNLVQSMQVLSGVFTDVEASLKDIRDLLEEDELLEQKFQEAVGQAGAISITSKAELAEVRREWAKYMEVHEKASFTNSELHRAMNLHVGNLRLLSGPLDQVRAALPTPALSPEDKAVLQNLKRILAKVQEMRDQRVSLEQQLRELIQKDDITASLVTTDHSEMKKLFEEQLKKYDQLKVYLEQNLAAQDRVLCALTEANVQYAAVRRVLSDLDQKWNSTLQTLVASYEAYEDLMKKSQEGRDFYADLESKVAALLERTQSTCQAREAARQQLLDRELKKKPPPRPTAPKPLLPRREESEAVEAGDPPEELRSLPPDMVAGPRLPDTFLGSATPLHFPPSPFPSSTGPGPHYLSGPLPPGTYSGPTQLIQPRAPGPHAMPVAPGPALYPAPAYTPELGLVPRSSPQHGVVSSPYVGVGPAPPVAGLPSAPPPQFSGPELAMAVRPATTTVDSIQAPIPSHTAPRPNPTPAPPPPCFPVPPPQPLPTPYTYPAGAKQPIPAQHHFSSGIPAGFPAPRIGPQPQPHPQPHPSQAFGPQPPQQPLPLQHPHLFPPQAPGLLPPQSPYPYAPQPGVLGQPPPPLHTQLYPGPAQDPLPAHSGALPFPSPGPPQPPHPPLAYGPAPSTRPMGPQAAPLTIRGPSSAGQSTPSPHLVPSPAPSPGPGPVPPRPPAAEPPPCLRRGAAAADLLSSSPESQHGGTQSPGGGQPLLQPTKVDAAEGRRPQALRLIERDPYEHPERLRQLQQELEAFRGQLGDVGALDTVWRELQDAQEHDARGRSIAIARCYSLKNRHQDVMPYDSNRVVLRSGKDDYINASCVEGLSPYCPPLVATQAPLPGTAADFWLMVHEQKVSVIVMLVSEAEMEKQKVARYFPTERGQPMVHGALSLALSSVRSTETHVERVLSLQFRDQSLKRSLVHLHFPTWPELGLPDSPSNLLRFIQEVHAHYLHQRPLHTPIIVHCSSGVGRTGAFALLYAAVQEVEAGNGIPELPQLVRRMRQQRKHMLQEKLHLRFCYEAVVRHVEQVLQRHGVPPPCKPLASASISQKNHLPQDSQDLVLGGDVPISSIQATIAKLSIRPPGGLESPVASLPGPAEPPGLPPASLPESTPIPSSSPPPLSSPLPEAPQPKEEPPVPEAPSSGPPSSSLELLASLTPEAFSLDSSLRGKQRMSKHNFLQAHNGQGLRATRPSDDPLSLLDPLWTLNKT

B1: LZTR1 R810W-FLAG (other, human, UniProt Q8N653 1-840, looked up)
chain: MAGPGSTGGQIGAAALAGGARSKVAPSVDFDHSCSDSVEYLTLNFGPFETVHRWRRLPPCDEFVGARRSKHTVVAYKDAIYVFGGDNGKTMLNDLLRFDVKDCSWCRAFTTGTPPAPRYHHSAVVYGSSMFVFGGYTGDIYSNSNLKNKNDLFEYKFATGQWTEWKIEGRLPVARSAHGATVYSDKLWIFAGYDGNARLNDMWTIGLQDRELTCWEEVAQSGEIPPSCCNFPVAVCRDKMFVFSGQSGAKITNNLFQFEFKDKTWTRIPTEHLLRGSPPPPQRRYGHTMVAFDRHLYVFGGAADNTLPNELHCYDVDFQTWEVVQPSSDSEVGGAEVPERACASEEVPTLTYEERVGFKKSRDVFGLDFGTTSAKQPTQPASELPSGRLFHAAAVISDAMYIFGGTVDNNIRSGEMYRFQFSCYPKCTLHEDYGRLWESRQFCDVEFVLGEKEECVQGHVAIVTARSRWLRRKITQARERLAQKLEQEAAPVPREAPGVAAGGARPPLLHVAIREAEARPFEVLMQFLYTDKIKYPRKGHVEDVLLIMDVYKLALSFQLCRLEQLCRQYIEASVDLQNVLVVCESAARLQLSQLKEHCLNFVVKESHFNQVIMMKEFERLSSPLIVEIVRRKQQPPPRTPLDQPVDIGTSLIQDMKAYLEGAGAEFCDITLLLDGHPRPAHKAILAARSSYFEAMFRSFMPEDGQVNISIGEMVPSRQAFESMLRYIYYGEVNMPPEDSLYLFAAPYYYGFYNNRLQAYCKQNLEMNVTVQNVLQILEAADKTQALDMKRHCLHIIVHQFTKVSKLPTLWSLSQQLLLDIIDSLASHISDKQCAELGADI
notes: Stably expressed in U87 cells by lentivirus; also called LZTR1-FLAG-R810W; LZTR1 RW; not shown: FLAG tag
binds: PTPN23 | SMPD4 | PARP10
